Reference: PMC7549910

Legend:
[1] = target: elongation factor Tu (EF-Tu) of M. hyopneumoniae strain 168, endogenous (M. hyopneumoniae (endogenous in strain 168))
human factor H (human) [2] = target: human factor H (human) (UniProt P08603)
human factor H (human) [3] = target: human factor H (human) (UniProt P08603); assay: SPR; BIAcore X100 Plus; factor H amine-coupled to a CM5 chip (712 RU); recombinant EF-Tu 0-14 uM as analyte in HBS-EP (10 mM HEPES, 150 mM NaCl, 3 mM EDTA, 0.05% P20), 30 uL/min, 180 s, 20°C

human factor H (human), sequence (P08603 19-1231): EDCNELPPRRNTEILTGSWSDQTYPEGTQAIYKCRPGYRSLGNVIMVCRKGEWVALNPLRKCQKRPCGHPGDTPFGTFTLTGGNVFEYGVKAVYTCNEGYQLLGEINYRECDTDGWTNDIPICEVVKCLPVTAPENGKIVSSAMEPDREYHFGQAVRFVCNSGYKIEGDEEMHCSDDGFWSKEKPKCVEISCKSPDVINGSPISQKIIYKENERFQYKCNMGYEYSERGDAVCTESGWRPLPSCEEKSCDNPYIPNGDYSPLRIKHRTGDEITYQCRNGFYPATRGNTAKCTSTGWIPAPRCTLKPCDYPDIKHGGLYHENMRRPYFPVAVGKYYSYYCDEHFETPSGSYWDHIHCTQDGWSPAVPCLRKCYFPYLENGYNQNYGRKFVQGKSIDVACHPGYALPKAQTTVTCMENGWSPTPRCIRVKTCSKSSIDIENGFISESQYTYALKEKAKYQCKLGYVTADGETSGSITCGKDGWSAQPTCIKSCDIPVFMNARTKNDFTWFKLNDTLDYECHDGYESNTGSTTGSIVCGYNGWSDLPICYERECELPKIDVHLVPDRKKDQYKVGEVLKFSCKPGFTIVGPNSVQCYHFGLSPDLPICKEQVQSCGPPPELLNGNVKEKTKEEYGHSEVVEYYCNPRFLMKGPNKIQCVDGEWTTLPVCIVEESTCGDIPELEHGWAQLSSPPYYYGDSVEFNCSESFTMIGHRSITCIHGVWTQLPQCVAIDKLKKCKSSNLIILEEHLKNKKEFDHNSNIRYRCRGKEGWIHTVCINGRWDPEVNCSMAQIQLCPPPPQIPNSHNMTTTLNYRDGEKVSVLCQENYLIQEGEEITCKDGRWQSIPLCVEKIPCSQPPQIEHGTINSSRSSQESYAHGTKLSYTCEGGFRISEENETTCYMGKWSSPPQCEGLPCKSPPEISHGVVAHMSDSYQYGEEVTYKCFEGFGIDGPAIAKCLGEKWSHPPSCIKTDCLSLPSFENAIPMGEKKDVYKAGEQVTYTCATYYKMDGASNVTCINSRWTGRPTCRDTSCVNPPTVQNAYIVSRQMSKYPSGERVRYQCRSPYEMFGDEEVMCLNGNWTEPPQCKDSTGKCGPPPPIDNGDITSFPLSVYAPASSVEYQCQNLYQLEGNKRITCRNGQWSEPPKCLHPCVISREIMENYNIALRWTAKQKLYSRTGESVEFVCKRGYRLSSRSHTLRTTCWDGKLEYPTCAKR
human factor H, sequence (P08603 19-1231): as above
elongation factor Tu (EF-Tu) of M. hyopneumoniae strain 168, endogenous (M. hyopneumoniae (endogenous in strain 168)), sequence (Q4A7K0 whole entry): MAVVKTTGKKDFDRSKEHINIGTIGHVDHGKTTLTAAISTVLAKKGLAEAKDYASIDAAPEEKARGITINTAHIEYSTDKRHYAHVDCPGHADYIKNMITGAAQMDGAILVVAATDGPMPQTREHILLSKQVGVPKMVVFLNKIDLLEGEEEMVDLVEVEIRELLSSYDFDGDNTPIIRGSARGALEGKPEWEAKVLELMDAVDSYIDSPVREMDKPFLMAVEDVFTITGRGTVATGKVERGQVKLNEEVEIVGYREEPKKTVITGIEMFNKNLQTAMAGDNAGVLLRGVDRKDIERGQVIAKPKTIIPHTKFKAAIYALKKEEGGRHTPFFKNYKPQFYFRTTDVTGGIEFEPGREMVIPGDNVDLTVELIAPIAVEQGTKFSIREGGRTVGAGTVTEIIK
recombinant full-length EF-Tu of M. hyopneumoniae, sequence (Q4A7K0 whole entry): as above
elongation factor Tu (EF-Tu) of M. hyopneumoniae strain 168, endogenous (natural protein), sequence (Q4A7K0 whole entry): as above

human factor H (from UniProt P08603 19-1231) (natural protein)
C3 fragment deposition on M. hyopneumoniae cells by flow cytometry, anti-EF-Tu antibodies against preimmune sera, with factor H [1]: 8 fold

elongation factor Tu (EF-Tu) of M. hyopneumoniae strain 168, endogenous (natural protein)
binding of M. hyopneumoniae cells to factor H immobilised on 96-well plates (qPCR count) after preincubation with anti-EF-Tu polyclonal antibodies against preimmune serum (human factor H (human) [2]): 47.7%

recombinant full-length EF-Tu of M. hyopneumoniae (from UniProt Q4A7K0 1-402) (natural protein; other documents disagree on this pair)
Kd (human factor H (human) [3]): 7.83 µM
